Source: PMC6876572

Legend:
[1] = molecular target: Cof1-decorated (Cofilin-saturated) actin filament (rabbit | S. cerevisiae) (UniProt P68135); assay: single-molecule two-colour TIRF imaging; actin filaments (10% Alexa-488, 0.5% biotinylated) anchored along their lengths on streptavidin-coated coverslips, exposed to a mixture of Cy5-Srv2ΔCARP (8.3 or 83 nM hexamers) and 1 µM yeast Cof1 in TIRF buffer (10 mM imidazole pH 7.4, 50 mM KCl, 1 mM MgCl2, 1 mM EGTA, 0.2 mM ATP, 10 mM DTT); dwell and waiting times at the pointed end; kon corrected for unlabeled molecules
[2] = molecular target: Cof1-decorated (Cofilin-saturated) actin filament (rabbit | S. cerevisiae) (UniProt P68135)

| Substance | average dwell time at the pointed end [1] | fractional occupancy of filament ends at 8.3 nM (calculated from kon and koff) [1] | fractional occupancy of filament ends at 83 nM (calculated from kon and koff) [1] | koff [1] | kon [1] | KM of the rate of pointed-end depolymerization against N-Srv2 concentration at 1 µM Cof1 (mf-TIRF, fit to the Michaelis-Menten equation) [2] |
| --- | --- | --- | --- | --- | --- | --- |
| Cy5-maleimide-labeled Srv2ΔCARP (S. cerevisiae Srv2/CAP lacking the CARP domain) (from UniProt P17555 1-526) (domain or fragment) | 2.2 s | 16% | 66% | 0.45 s⁻¹ | 1.1e+07 M⁻¹ s⁻¹ | – |
| N-Srv2 (N-terminal half of S. cerevisiae Srv2/CAP) (domain or fragment) | – | – | – | – | – | 0.05 µM |
